Measurements taken from patent US20210253725A1 (BIONTECH, published 2021).

T1: CD134 expressed on the cell surface of HT1080_OX40 cells (human, UniProt P43489 29-277)
T1 sequence (looked up): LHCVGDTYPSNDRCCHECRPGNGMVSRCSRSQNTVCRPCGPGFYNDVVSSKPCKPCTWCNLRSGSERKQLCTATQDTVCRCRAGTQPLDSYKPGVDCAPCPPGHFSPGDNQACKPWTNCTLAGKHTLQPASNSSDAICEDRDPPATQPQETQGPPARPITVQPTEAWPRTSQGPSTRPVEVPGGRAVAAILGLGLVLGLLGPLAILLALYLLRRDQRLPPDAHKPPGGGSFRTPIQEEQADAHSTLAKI

T2: CD134 protein (His-tagged, Sino Biological Inc. 10481-H08H) (human, UniProt P43489 29-216)
T2 construct: bought protein coated on ELISA plates; also called OX40; TNFRSF4; not shown: His tag
T2 sequence (looked up): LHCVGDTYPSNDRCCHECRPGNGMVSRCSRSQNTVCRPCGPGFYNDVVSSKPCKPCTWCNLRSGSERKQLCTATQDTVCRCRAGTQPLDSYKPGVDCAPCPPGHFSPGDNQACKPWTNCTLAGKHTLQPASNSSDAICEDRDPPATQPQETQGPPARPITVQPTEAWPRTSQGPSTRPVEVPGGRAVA

B1: P018.S.11.A.D03 (antibody, V domains shown)
VH: QEQLKETGGGLVQPGGSLTLSCKASGFDFSSGYMSWVRQAPGKGLEWIGYIDPVFGSTYYASWVNGRFAISSHNAQNTLYLQLNSLTAADTATYFCARDLRAFYSGWGGINLWGPGTLVTVSS
VL: AAVLTQTPSPVSAAVGGTVTIKCQSSQIVVNNNFLSWYQQKPGQPPKLLIYDASNLASGVPDRFSGSGSGTQFTLTISGVQSDDAATYYCLGGYDDDAENAFGGGTEVVVQ
notes: V regions on human Ig constant parts; also called AB134_30
B2: P018.S.11.A.G03 (antibody, V domains shown)
VH: QSLEESGGRLVTPGTPLTLTCTASGFSLTNYAMNWVRQAPGKGLEWIGFINYDGNTYYANWAKGRFTISRTSTTVDLKITSPTTEDTATYFCARGGDGYTHIPDTFDPWGPGTLVTVSS
VL: AFEMTQTPSSVSVAVGGTVTIKCQASQSIYSYLSWYQQKPGQPPKLLIYYASTLASGVPSRFVGSGSGTQFTLTISGVESADAATYYCQQGYSYSNIDNVFGGGTEMVVK
notes: V regions on human Ig constant parts; also called AB134_43
B3: P018.S.12.A.F05 (antibody, V domains shown)
VH: QSLEESGGGLVQPGGSLKLSCKASGIDFSSYGVSWVRQAPGKGLEWIAYTYPDYGSTDYASWVNGRFTISLDNAQNTVFLQMTSLTAADTATYFCASSSNGWGGGFYFDLWGPGTLVTVSS
VL: ALVMTQTPSPVSAAVGGTVTINCQASEDIYSNLAWFQQKPGQPPKLLIYGASTLASGVPSRFSGSGSGTEFTLTINDLKSDDAATYYCLGVYTYITTDPNAFGGGTEVVVK
notes: V regions on human Ig constant parts; also called AB134_81
B4: P018.S.12.A.F03 (antibody, V domains shown)
VH: QSLEESGGRLVAPGTPLTLTCTVSGIDLSRYAMGWVRQAPGKGLEYIGIIDDNDITYFATWAKGRFTISKTSTTLGLKITSPTTEDTATYFCARTADYADYSFGLWGPGTLVTVSS
VL: DVVMTQTPTSVSEPVGGTVTIKCQASENIGNYLAWYQQRPGQRPKLLIYAASNLASGVPSRFKGSGSGTEYALTISDLESDDAATYYCQCTYDDSEYFVFGGGTEVVVK
notes: V regions on human Ig constant parts; also called AB134_79
B5: P018.S.05.A.F05 (as anti-CD134 antibody) (antibody, V domains shown)
VH: QSVEESGGRLVTPGTPLTLTCTVSGFSLSNYYMTWVRQAPGKGLEYIGIIGSGVSTYYANWAKGRFTISKASSTTVDLKMTSPTTEDTATYFCARDMYVGNWGDWGLWGQGTLVTVSS
VL: AYDMTQTPASVEVAVGGTVTIKCQASQSISNNLNWYQQKPGQPPKLLIYSVSTLASGVPSRFKGSGSGTDYTLTISGVESVDAATYYCQQDYRIGDLDSAFGGGTEVVVK
notes: V regions on human Ig constant parts; also called AB134_16
B6: P018.S.12.A.C01 (antibody, V domains shown)
VH: QEQLKESGGGLVTPGGTLTLTCTASGFTFSSHAMGWVRQAPGKGLEWIGKIYDDGTTFYANWAKGRFTISRTSTTVDLKMTSLTTEDTATYFCLRGYNSGFNFWGQGTLVTVSS
VL: AQVLTQTPASVSAAVGGTVTISCQSSESVYNNNFLAWYQQKPGQPPKLLIYLASTLASGVPSRFSGSGSGTEFTLTISDLDSDDAATYYCAGGYDDNVYGFGGGTEVVVK
notes: V regions on human Ig constant parts; also called AB134_61
B7: P018.S.11.A.A06 (antibody, V domains shown)
VH: QEQLVESGGGLVQPEGSLTLTCKASGFSFSSANCMHWVRQAPEKGLQWIGCVCIGDGTTYYASWVNGRFSISATSSTTVTIQMTSLTAADTATYFCARDLGLWGPGTLVTVSS
VL: AIVMTQTPSSKSVPVGDTVTINCQASESVDKYTQCSWYQQKPGQPPKLLIYYASTLASGVPSRFKGSGSGTQFTLTISDVVSDDAATYYCSGYKGGSADMIAFGGGTELVVT
notes: V regions on human Ig constant parts; also called AB134_23
B8: P018.S.02.A.H03 (antibody, V domains shown)
VH: QSLEESGGRLVTPGGSLTLTCTVSGIDLSSYGMGWVRQAPGKGLEWIGTISYGGSTFYANWVKGRFTISKTSTTVDLKVTSLTTEDAATYFCAREVPYWSLWGQGTLVTVSS
VL: AYDMTQTPASVAAAVGGTVTIKCQASQSIGSDLSWYQQKRGQPPKLLIYDASTLASGVPSRFKGSGSGTEFTLTISDVQSADAATVYCQQDYSYRNVDNTFGGGTEVVVK
notes: V regions on human Ig constant parts; also called AB134_3
B9: P018.S.12.A.D05 (antibody, V domains shown)
VH: QEQLKESGGGVVTPGGTLTLTCTASAFSLNHYNIQWVRQAPGKGLEWIGWILTDGTEYYANWAKGRFTISKTSTTVDLKIASPTTEDTATYFCAREGDWGVDSLWGPGTLVTVSS
VL: ALVMTQTPSPVSAAVGGTVTISCQSSQSVDNNDFLSWYQQKPGQPPKLLIYLASKLASGVPSRFSGSGSGTQFTLTISGVQSDDAATYYCKGLYFDSGWYAAFGGGTEVVVE
notes: V regions on human Ig constant parts; also called AB134_70
B10: P018.S.12.A.B05 (antibody, V domains shown)
VH: QQQLVESGGGLVKPGASLTLTCKASGFFFSGSYYMCWVRQAPGKGLEWIACIYTGSDDDTNYASWAKGRFTISKTSSTTVTLQMTSLTAADTATYFCARRNYDTDWGGDLWGPGTLVTVSS
VL: AVVLTQTPASVEAAVGGTVTIKCQASQSIGSSLAWYQQKPGQRPKLLIYYASNLASGVSSRFKGSGSGTQFTLTISDLESADAATYYCQCTYTSSDYLDAFGGGTEVVVK
notes: V regions on human Ig constant parts; also called AB134_59
B11: P018.S.08.A.F03 (antibody, V domains shown)
VH: QSVEESGGRLVTPGTPLTLTCTASGFTISSYHMIWVRQAPGEGLEWIGDIYGGTATTDYASWAKGRFTISKTSTTVDLKMTSLTTEDTATYFCARARYSGGSYANYVFNLWGQGTLVTVSS
VL: DIVMTQTPASVEAAVGGTVTIKCQASQSISSYLAWYQQKPGQPPKLLIYRTSTLESGVPSRFKGSGSGTEFTLTISDLESADAATYYCQGYDWSSSNRYDNTFGGGTEVVVK
B12: P018.S.13.A.A05 (antibody, V domains shown)
VH: QSLEESGGRLVTPGTPLTLTCTASGFSLSRYDMSWVRQAPGKGLEYIGVISSSGGTNYANWAKGRFTISKTSTTVDLKITSPTTEDTATYFCAREGDYWDFNLWGPGTLVTVSS
VL: AQVLTQTPSSVSAAVGGTVTINCQASQSISNLLAWYQQKPGQPPKLLIYGASTLASGVPSRFSGSGSGTEFTLTISDLESDDAATYYCAGGFPGLDTVAAFGGGTEAVVT
B13: P018.S.14.A.G03 (antibody, V domains shown)
VH: QSLEESGGRLVTPGTPLTLTCTVSGIDLSSYHMCWVRQAPGKGLEYIGYIAYGGNTYYANWAKGRFTISKTSTTVDLRITSPTTEDTATYFCARGYSEDSYWGLWGPGTLVTVSS
VL: AYDMTQTPASVEAAVGGTVTIKCQASQNIENYLAWYQQKPGQPPKLLIYDTSKLTSGVPSRFSGSGSGTDFTLTISGVQSDDAATYYCQQDYGIIFVDNIFGGGTEVVVK
B14: P018.S.13.A.C02 (antibody, V domains shown)
VH: QSVEESGGRLVTPGTPLTLTCTVSGFSLSSYAMSWVRQAPGKGLEWIGIISTSGITYYASWAKGRFTISKTSTMVDLKITSPTTEDTATYFCARLNGFDDYVRYFDFWGLGTLVTVSS
VL: AIELTQTPSSVSAAVGGTVTINCQASESIASNLAWYQQKPGQPPKLLIYAASYLASGVPSRFKGSGSGTEYTLTISGVQSADAATYYCQSAFYVSSSDNAFGGGTEVVVK

target: T1, CD134 expressed on the cell surface of …; experiment: cell-based or functional assay
Wherever Functional assay Cross-linked by F(ab′)2 fragment IL-8 is given: test concentration or dose not given here.
Wherever Functional assay IL-8 is given: test concentration or dose not given here.

Row | Binder | Functional assay Cross-linked by F(ab′)2 fragment IL-8 | Functional assay IL-8
1 | B1 | 1.86 abs. corr. | 2.24 abs. corr.
2 | B2 | 2.1 abs. corr. | 1.57 abs. corr.
3 | B3 | 2.17 abs. corr. | 0.341 abs. corr.
4 | B4 | 2.15 abs. corr. | 0.527 abs. corr.
5 | B5 | 1.71 abs. corr. | 0.187 abs. corr.
6 | B6 | 2.06 abs. corr. | -0.026 abs. corr.
7 | B7 | 2.16 abs. corr. | 0.732 abs. corr.
8 | B8 | 1.95 abs. corr. | 2.56 abs. corr.
9 | B9 | 2.15 abs. corr. | -0.007 abs. corr.
10 | B10 | 2.15 abs. corr. | 0.96 abs. corr.

target: T1, CD134 expressed on the cell surface of …; experiment: cell-based or functional assay; remark: another data set of the same source

Row | Binder | EC 50 (IL-8 release, cross-linked)
11 | B1 | 0.176 mg/L
12 | B2 | 0.894 mg/L
13 | B3 | 0.733 mg/L
14 | B4 | 1.63 mg/L
15 | B5 | 7.12 mg/L
16 | B6 | 0.431 mg/L
17 | B7 | 2.09 mg/L
18 | B8 | 0.215 mg/L
19 | B9 | 2.4 mg/L
20 | B10 | 0.102 mg/L

target: human 4-1BB (CD137) (human, UniProt Q07011 24-255); experiment: cell-based or functional assay
Sequence (Q07011 24-255): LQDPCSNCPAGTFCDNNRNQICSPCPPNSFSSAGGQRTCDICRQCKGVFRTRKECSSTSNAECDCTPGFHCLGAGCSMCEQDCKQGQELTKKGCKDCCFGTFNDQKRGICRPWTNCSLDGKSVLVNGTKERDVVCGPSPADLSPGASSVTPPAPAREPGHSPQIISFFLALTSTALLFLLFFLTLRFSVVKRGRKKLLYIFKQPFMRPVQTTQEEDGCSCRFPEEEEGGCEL

Row | Binder | EC 50 [ng/mL] of agonistic function (IL-8 release from CD137-overexpressing HT1080 cells, antibody cross-linked by F(ab')2 goat anti-human IgG)
21 | B11 | 2710 ng/mL
22 | B12 | 3720 ng/mL
23 | B13 | 3500 ng/mL
24 | B14 | 3500 ng/mL

target: T1, CD134 expressed on the cell surface of …; experiment: HT1080_OX40 cells, imaging; further: test concentration or dose not given here

Row | Binder | Cellular binding assay [RFU]
25 | B1 | 482 RFU
26 | B2 | 450 RFU
27 | B3 | 511 RFU
28 | B4 | 485 RFU
29 | B5 | 392 RFU
30 | B6 | 496 RFU
31 | B7 | 537 RFU
32 | B8 | 198 RFU
33 | B9 | 451 RFU
34 | B10 | 536 RFU

target: T2, CD134 protein (His-tagged, Sino …); experiment: ELISA, coated His-tagged CD134; further: test concentration or dose not given here

Row | Binder | ELISA [abs. corr.]
35 | B1 | 1.99 abs. corr.
36 | B2 | 2.11 abs. corr.
37 | B3 | 2.12 abs. corr.
38 | B4 | 2.45 abs. corr.
39 | B5 | 2.41 abs. corr.
40 | B6 | 2.49 abs. corr.
41 | B7 | 1.84 abs. corr.
42 | B8 | 0.468 abs. corr.
43 | B9 | 2.13 abs. corr.
44 | B10 | 2.1 abs. corr.
